Experimental data reported in patent publication US20250171562A1 (ALK ABELL, published 2025).
Positions count from the first letter of the chain named. Names may count otherwise.

B1: CIgG4F6A1(G4S)1 (Fc fusion)
chain 1: GPPCPPCPAPEFLGGPSVFLFPPKPKDTLMISRTPEVTCVVVDVSQEDPEVQFNWYVDGVEVHNAKTKPREEQFNSTYRVVSVLTVLHQDWLNGKEYKCKVSNKGLPSSIEKTISKAKGQPREPQVYTLPPCQEEMTKNQVSLWCLVKGFYPSDIAVEWESNGQPENNYKTTPPVLDSDGSFFLYSRLTVDKSRWQEGNVFSCSVMHEALHNHYTQKSLSLSLGKGGGGSDVQLQESGGGLVQAGGSLRLSCAASGLTFGSYDMGWYRQAPGKQRELVGRIRNDGITYYADSVKGRFTMSRDNAKNTVYLQMNSLKPEDTAVYYCAADGTGLGHYDYWGQGTQVTVS
chain 2: GPPCPPCPAPEFLGGPSVFLFPPKPKDTLMISRTPEVTCVVVDVSQEDPEVQFNWYVDGVEVHNAKTKPREEQFNSTYRVVSVLTVLHQDWLNGKEYKCKVSNKGLPSSIEKTISKAKGQPREPQVCTLPPSQEEMTKNQVSLSCAVKGFYPSDIAVEWESNGQPENNYKTTPPVLDSDGSFFLVSRLTVDKSRWQEGNVFSCSVMHEALHNHYTQKSLSLSLGKGGGGSEVQLLESGGGLVQPGGSLRLSCAASGFTFGNYDMAWVRQAPGKRPEWVSSIDTGGDITHYADSVKGRFTISRDNAKNTLYLQMNSLRPEDTAVYWCATDEEYALGPNEFDYYGQGTLVTVSS
B2: CIgG4F6A1(G4S)2 (Fc fusion)
chain 1: GPPCPPCPAPEFLGGPSVFLFPPKPKDTLMISRTPEVTCVVVDVSQEDPEVQFNWYVDGVEVHNAKTKPREEQFNSTYRVVSVLTVLHQDWLNGKEYKCKVSNKGLPSSIEKTISKAKGQPREPQVYTLPPCQEEMTKNQVSLWCLVKGFYPSDIAVEWESNGQPENNYKTTPPVLDSDGSFFLYSRLTVDKSRWQEGNVFSCSVMHEALHNHYTQKSLSLSLGKGGGGSGGGGSDVQLQESGGGLVQAGGSLRLSCAASGLTFGSYDMGWYRQAPGKQRELVGRIRNDGITYYADSVKGRFTMSRDNAKNTVYLQMNSLKPEDTAVYYCAADGTGLGHYDYWGQGTQVTVS
chain 2: GPPCPPCPAPEFLGGPSVFLFPPKPKDTLMISRTPEVTCVVVDVSQEDPEVQFNWYVDGVEVHNAKTKPREEQFNSTYRVVSVLTVLHQDWLNGKEYKCKVSNKGLPSSIEKTISKAKGQPREPQVCTLPPSQEEMTKNQVSLSCAVKGFYPSDIAVEWESNGQPENNYKTTPPVLDSDGSFFLVSRLTVDKSRWQEGNVFSCSVMHEALHNHYTQKSLSLSLGKGGGGSGGGGSEVQLLESGGGLVQPGGSLRLSCAASGFTFGNYDMAWVRQAPGKRPEWVSSIDTGGDITHYADSVKGRFTISRDNAKNTLYLQMNSLRPEDTAVYWCATDEEYALGPNEFDYYGQGTLVTVSS
B3: CIgG4F6A1(G4S)3 (Fc fusion)
chain 1: GPPCPPCPAPEFLGGPSVFLFPPKPKDTLMISRTPEVTCVVVDVSQEDPEVQFNWYVDGVEVHNAKTKPREEQFNSTYRVVSVLTVLHQDWLNGKEYKCKVSNKGLPSSIEKTISKAKGQPREPQVYTLPPCQEEMTKNQVSLWCLVKGFYPSDIAVEWESNGQPENNYKTTPPVLDSDGSFFLYSRLTVDKSRWQEGNVFSCSVMHEALHNHYTQKSLSLSLGKGGGGSGGGGSGGGGSDVQLQESGGGLVQAGGSLRLSCAASGLTFGSYDMGWYRQAPGKQRELVGRIRNDGITYYADSVKGRFTMSRDNAKNTVYLQMNSLKPEDTAVYYCAADGTGLGHYDYWGQGTQVTVS
chain 2: GPPCPPCPAPEFLGGPSVFLFPPKPKDTLMISRTPEVTCVVVDVSQEDPEVQFNWYVDGVEVHNAKTKPREEQFNSTYRVVSVLTVLHQDWLNGKEYKCKVSNKGLPSSIEKTISKAKGQPREPQVCTLPPSQEEMTKNQVSLSCAVKGFYPSDIAVEWESNGQPENNYKTTPPVLDSDGSFFLVSRLTVDKSRWQEGNVFSCSVMHEALHNHYTQKSLSLSLGKGGGGSGGGGSGGGGSEVQLLESGGGLVQPGGSLRLSCAASGFTFGNYDMAWVRQAPGKRPEWVSSIDTGGDITHYADSVKGRFTISRDNAKNTLYLQMNSLRPEDTAVYWCATDEEYALGPNEFDYYGQGTLVTVSS
B4: CIgG4A1B1(G4S)1 (Fc fusion)
chain 1: GPPCPPCPAPEFLGGPSVFLFPPKPKDTLMISRTPEVTCVVVDVSQEDPEVQFNWYVDGVEVHNAKTKPREEQFNSTYRVVSVLTVLHQDWLNGKEYKCKVSNKGLPSSIEKTISKAKGQPREPQVCTLPPSQEEMTKNQVSLSCAVKGFYPSDIAVEWESNGQPENNYKTTPPVLDSDGSFFLVSRLTVDKSRWQEGNVFSCSVMHEALHNHYTQKSLSLSLGKGGGGSQVQLQESGGGLVQTGGSLRLSCAVHGRTFSNTGMGWFRQAPGNERQFVAIISPSGTSTYYADSVKGRFTISRDPAKNTVYLQMNSLKMDDTAVYYCAASYGSNWSTLRHQRRNEYDAWGQGTQVAVS
chain 2: B1 chain 2 with C127Y, S132C, S144W, A146L, V185Y
notes: B1 on the hole (437), A1 on the knob (106)
B5: CIgG4B1A1(no linker) (Fc fusion)
chain 1: GPPCPPCPAPEFLGGPSVFLFPPKPKDTLMISRTPEVTCVVVDVSQEDPEVQFNWYVDGVEVHNAKTKPREEQFNSTYRVVSVLTVLHQDWLNGKEYKCKVSNKGLPSSIEKTISKAKGQPREPQVYTLPPCQEEMTKNQVSLWCLVKGFYPSDIAVEWESNGQPENNYKTTPPVLDSDGSFFLYSRLTVDKSRWQEGNVFSCSVMHEALHNHYTQKSLSLSLGKQVQLQESGGGLVQTGGSLRLSCAVHGRTFSNTGMGWFRQAPGNERQFVAIISPSGTSTYYADSVKGRFTISRDPAKNTVYLQMNSLKMDDTAVYYCAASYGSNWSTLRHQRRNEYDAWGQGTQVAVS
chain 2: GPPCPPCPAPEFLGGPSVFLFPPKPKDTLMISRTPEVTCVVVDVSQEDPEVQFNWYVDGVEVHNAKTKPREEQFNSTYRVVSVLTVLHQDWLNGKEYKCKVSNKGLPSSIEKTISKAKGQPREPQVCTLPPSQEEMTKNQVSLSCAVKGFYPSDIAVEWESNGQPENNYKTTPPVLDSDGSFFLVSRLTVDKSRWQEGNVFSCSVMHEALHNHYTQKSLSLSLGKEVQLLESGGGLVQPGGSLRLSCAASGFTFGNYDMAWVRQAPGKRPEWVSSIDTGGDITHYADSVKGRFTISRDNAKNTLYLQMNSLRPEDTAVYWCATDEEYALGPNEFDYYGQGTLVTVSS
B6: CIgG4B1A1(GS) (Fc fusion)
chain 1: GPPCPPCPAPEFLGGPSVFLFPPKPKDTLMISRTPEVTCVVVDVSQEDPEVQFNWYVDGVEVHNAKTKPREEQFNSTYRVVSVLTVLHQDWLNGKEYKCKVSNKGLPSSIEKTISKAKGQPREPQVYTLPPCQEEMTKNQVSLWCLVKGFYPSDIAVEWESNGQPENNYKTTPPVLDSDGSFFLYSRLTVDKSRWQEGNVFSCSVMHEALHNHYTQKSLSLSLGKGSQVQLQESGGGLVQTGGSLRLSCAVHGRTFSNTGMGWFRQAPGNERQFVAIISPSGTSTYYADSVKGRFTISRDPAKNTVYLQMNSLKMDDTAVYYCAASYGSNWSTLRHQRRNEYDAWGQGTQVAVS
chain 2: GPPCPPCPAPEFLGGPSVFLFPPKPKDTLMISRTPEVTCVVVDVSQEDPEVQFNWYVDGVEVHNAKTKPREEQFNSTYRVVSVLTVLHQDWLNGKEYKCKVSNKGLPSSIEKTISKAKGQPREPQVCTLPPSQEEMTKNQVSLSCAVKGFYPSDIAVEWESNGQPENNYKTTPPVLDSDGSFFLVSRLTVDKSRWQEGNVFSCSVMHEALHNHYTQKSLSLSLGKGSEVQLLESGGGLVQPGGSLRLSCAASGFTFGNYDMAWVRQAPGKRPEWVSSIDTGGDITHYADSVKGRFTISRDNAKNTLYLQMNSLRPEDTAVYWCATDEEYALGPNEFDYYGQGTLVTVSS

Target: T1, recombinant human IgE (human, UniProt P01854-1 1-428)
T1 construct: made in-house (ALK); preloaded on immobilised FcεRIα in the displacement ELISA
T1 sequence (P01854 other isoform, or with tags, fused parts or gaps): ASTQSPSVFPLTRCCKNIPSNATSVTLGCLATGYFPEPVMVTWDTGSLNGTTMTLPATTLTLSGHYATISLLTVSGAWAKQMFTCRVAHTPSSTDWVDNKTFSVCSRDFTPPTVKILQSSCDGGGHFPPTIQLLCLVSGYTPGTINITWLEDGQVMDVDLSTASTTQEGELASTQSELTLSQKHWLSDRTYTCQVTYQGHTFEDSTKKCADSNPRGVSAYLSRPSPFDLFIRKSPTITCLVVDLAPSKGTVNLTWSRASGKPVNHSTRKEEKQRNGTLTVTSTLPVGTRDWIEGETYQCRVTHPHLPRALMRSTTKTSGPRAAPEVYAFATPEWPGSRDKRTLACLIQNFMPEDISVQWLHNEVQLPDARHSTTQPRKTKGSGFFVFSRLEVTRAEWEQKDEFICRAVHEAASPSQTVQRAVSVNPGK
Assay: IgE-FcεRIα displacement ELISA
In short: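 sdAbs at pM–μM were incubated 1 h on preformed complexes of 13 ng/ml recombinant human IgE with avi-tag-biotinylated human FcεRIα captured on streptavidin.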

Row | Binder | Max effect | EC50
1 | B1 | 25% | 
2 | B2 | 75% | 8 nM
3 | B3 | 90% | 3.3 nM
4 | B4 | > 95% | 2.9 nM
5 | B5 | 90% | 14 nM
6 | B6 | > 95% | 9.1 nM
